T1: Nuf2 (as subunit of the wild-type Ndc80 complex) (human, UniProt Q9BZD4 1-464)
T1 sequence: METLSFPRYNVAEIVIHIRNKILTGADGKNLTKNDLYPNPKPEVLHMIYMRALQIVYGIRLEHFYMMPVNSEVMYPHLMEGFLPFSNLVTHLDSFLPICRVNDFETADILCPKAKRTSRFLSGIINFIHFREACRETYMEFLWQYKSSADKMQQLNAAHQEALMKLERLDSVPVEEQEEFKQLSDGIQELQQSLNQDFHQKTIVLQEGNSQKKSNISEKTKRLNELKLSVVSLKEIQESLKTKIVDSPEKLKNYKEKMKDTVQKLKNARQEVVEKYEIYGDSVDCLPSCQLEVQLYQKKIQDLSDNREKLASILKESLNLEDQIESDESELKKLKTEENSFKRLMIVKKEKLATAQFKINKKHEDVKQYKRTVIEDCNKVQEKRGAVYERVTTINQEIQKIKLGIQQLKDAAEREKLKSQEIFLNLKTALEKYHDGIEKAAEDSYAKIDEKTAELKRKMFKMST

T2: Hec1 (as subunit of the wild-type Ndc80 complex) (human, UniProt O14777 1-642)
T2 sequence: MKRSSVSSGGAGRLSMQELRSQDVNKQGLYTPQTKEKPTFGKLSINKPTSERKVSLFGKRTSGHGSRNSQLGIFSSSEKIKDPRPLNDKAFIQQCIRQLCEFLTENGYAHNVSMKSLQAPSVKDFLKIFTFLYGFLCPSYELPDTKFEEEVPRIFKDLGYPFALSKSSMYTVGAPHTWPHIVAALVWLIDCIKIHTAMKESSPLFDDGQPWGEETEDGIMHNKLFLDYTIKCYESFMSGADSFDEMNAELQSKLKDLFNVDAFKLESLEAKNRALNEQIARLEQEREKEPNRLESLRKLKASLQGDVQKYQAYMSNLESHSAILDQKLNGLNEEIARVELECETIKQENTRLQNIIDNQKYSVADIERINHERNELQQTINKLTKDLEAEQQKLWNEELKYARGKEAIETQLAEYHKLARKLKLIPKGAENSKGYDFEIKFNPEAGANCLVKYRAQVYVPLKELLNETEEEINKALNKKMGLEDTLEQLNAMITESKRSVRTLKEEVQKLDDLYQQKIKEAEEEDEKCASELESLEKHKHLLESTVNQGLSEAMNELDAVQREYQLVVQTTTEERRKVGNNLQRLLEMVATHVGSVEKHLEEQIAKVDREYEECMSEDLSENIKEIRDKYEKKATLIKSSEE

B1: Spc24-His (as subunit of the wild-type Ndc80 complex) (natural protein)
chain: MAAFRDIEEVSQGLLSLLGANRAEAQQRRLLGRHEQVVERLLETQDGAEKQLREILTMEKEVAQSLLNAKEQVHQGGVELQQLEAGLQEAGEEDTRLKASLLQLTRELEELKEIEADLERQEKEVDEDTTVTIPSAVYVAQLYHQVSKIEWDYECEPGMVKGIHHGPSVAQPIHLDSTQLSRKFISDYLWSLVDTEW
B2: Spc25 (as subunit of the wild-type Ndc80 complex) (natural protein)
chain: MVEDELALFDKSINEFWNKFKSTDTSCQMAGLRDTYKDSIKAFAEKLSVKLKEEERMVEMFLEYQNQISRQNKLIQEKKDNLLKLIAEVKGKKQELEVLTANIQDLKEEYSRKKETISTANKANAERLKRLQKSADLYKDRLGLEIRKIYGEKLQFIFTNIDPKNPESPFMFSLHLNEARDYEVSDSAPHLEGLAEFQENVRKTNNFSAFLANVRKAFTATVYN
B3: Ska3 (as subunit of the wild-type Ska complex) (natural protein)
chain: MDPIRSFCGKLRSLASTLDCETARLQRALDGEESDFEDYPMRILYDLHSEVQTLKDDVNILLDKARLENQEGIDFIKATKVLMEKNSMDIMKIREYFQKYGYSPRVKKNSVHEQEAINSDPELSNCENFQKTDVKDDLSDPPVASSCISEKSPRSPQLSDFGLERYIVSQVLPNPPQAVNNYKEEPVIVTPPTKQSLVKVLKTPKCALKMDDFECVTPKLEHFGISEYTMCLNEDYTMGLKNARNNKSEEAIDTESRLNDNVFATPSPIIQQLEKSDAEYTNSPLVPTFCTPGLKIPSTKNSIALVSTNYPLSKTNSSSNDLEVEDRTSLVLNSDTCFENLTDPSSPTISSYENLLRTPTPPEVTKIPEDILQLLSKYNSNLATPIAIKAVPPSKRFLKHGQNIRDVSNKEN
B4: Ska complex^(Ska1 ΔMTBD) (full length Ska2 and Ska3 with Ska1 residues 1-131), without His-tag (complex)
chain 1: MASSDLEQLCSHVNEKIGNIKKTLSLRNCGQEPTLKTVLNKIGDEIIVINELLNKLELEIQYQEQTNNSLKELCESLEEDYKDIEHLKENVPSHLPQVTVTQSCVKGSDLDPEEPIKVEEPEPVKKPPKEQ
chain 2: MEAEVDKLELMFQKAESDLDYIQYRLEYEIKTNHPDSASEKNPVTLLKELSVIKSRYQTLYARFKPVAVEQKESKSRICATVKKTMNMIQKLQKQTDLELSPLTKEEKTAAEQFKFHMPDL
chain 3: B3 chain

Test in all cases: cross-linking
The target of test [1] is B3.
The target of test [2] is T1, Nuf2 (as subunit of the wild-type Ndc80 …).
In test [3] the target is T2, Hec1 (as subunit of the wild-type Ndc80 …).
Test [4] has as its target human Ndc80 complex (Hec1, Nuf2, Spc24-His, Spc25), wild type (human, UniProt O14777;Q9BZD4;Q8NBT2;Q9HBM1).

As to B1, the binding result in test [1] is on record as “binds”. Still for that read-out and setting: in the case of B2 it was “binds”. Turning to B3, the binding result in test [2] and in test [3] was “binds” throughout. As to B4, the binding result in test [4] is listed as “binds”.

Values taken from article doi:10.1101/245167 (bioRxiv, 2018).
